This note sets out measurements from article PMC7728815, “Substrate-binding destabilizes the hydrophobic cluster to relieve the autoinhibition of bacterial ubiquitin ligase IpaH9.8” (Communications Biology, 2020).

Series [1] concerns the target T1, human guanylate-binding protein 1 (hGBP1), full-length (human, UniProt P32455 1-592, NT-647-NHS label (in the MST assay only)).
T1 construct: full-length in the crystallized complex; in MST it was fluorescently labelled (NT-647-NHS) and no nucleotide is mentioned
T1 sequence (looked up): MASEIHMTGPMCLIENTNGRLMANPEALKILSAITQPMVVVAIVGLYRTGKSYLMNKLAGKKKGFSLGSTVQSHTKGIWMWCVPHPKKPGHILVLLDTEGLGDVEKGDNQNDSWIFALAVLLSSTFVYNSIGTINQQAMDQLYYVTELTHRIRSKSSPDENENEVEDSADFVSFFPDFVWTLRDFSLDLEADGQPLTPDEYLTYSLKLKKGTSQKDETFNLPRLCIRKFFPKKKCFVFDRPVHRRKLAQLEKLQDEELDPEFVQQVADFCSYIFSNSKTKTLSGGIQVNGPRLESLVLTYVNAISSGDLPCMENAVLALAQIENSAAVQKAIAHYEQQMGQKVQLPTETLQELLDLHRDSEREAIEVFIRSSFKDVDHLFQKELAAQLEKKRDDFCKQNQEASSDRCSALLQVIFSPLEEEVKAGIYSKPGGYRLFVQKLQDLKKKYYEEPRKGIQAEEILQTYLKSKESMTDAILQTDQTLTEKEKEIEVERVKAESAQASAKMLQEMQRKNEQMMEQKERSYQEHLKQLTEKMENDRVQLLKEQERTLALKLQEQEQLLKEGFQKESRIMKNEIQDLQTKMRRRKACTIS
In words: crystal structure; 0.3 mM IpaH9.8^LRR (22–244) mixed with 0.3 mM full-length hGBP1 and 5 mM GDP; 3.5 M NaCl, 0.1 M sodium citrate pH 6.5, 20 °C; space group P6122, one heterodimer in the asymmetric unit. As to conditions: both partners purified.

Series [2] deals with T1, human guanylate-binding protein 1 …. The series can be described thus: MST; 75 nM NT-647-NHS-labeled hGBP1 in PBS pH 7.4; IpaH9.8 titrated in, 30 min at room temperature; Monolith NT.Automated. As to conditions: both partners purified.
Series [3] concerns the molecule itself. The series can be described thus: native gel or EMSA; Native-PAGE of IpaH9.8 and IpaH9.8-C337A under reducing and non-reducing conditions. (A gel shift assay detects complexes by their altered migration in electrophoresis.)

B1: IpaH9.8^LRR (22–244), LRR domain of IpaH9.8 (domain or fragment)
chain: TYADYFSAWDKWEKQALPGEERDEAVSRLKECLINNSDELRLDRLNLSSLPDNLPAQITLLNVSYNQLTNLPELPVTLKKLYSASNKLSELPVLPPALESLQVQHNELENLPALPDSLLTMNISYNEIVSLPSLPQALKNLRATRNFLTELPAFSEGNNPVVREYFFDRNQISHIPESILNLRNECSIHISDNPLSSHALPALQRLTSSPDYHGPRIYFSMSD
notes: Leucine-rich repeat domain of IpaH9.8 of S. flexneri, residues 22–244 as crystallized (the plasmid section says 21–244); Plasmids section gives 21–244, crystallization section 22–244; also called IpaH9.8 LRR domain; IpaH9.8^LRR-Sub
Turning to B1, the binding result in series [1] is on record as “binds”.

B2: IpaH9.8 (wild type, Shigella flexneri) (enzyme)
chain: MLPINNNFSLPQNSFYNTISGTYADYFSAWDKWEKQALPGEERDEAVSRLKECLINNSDELRLDRLNLSSLPDNLPAQITLLNVSYNQLTNLPELPVTLKKLYSASNKLSELPVLPPALESLQVQHNELENLPALPDSLLTMNISYNEIVSLPSLPQALKNLRATRNFLTELPAFSEGNNPVVREYFFDRNQISHIPESILNLRNECSIHISDNPLSSHALPALQRLTSSPDYHGPRIYFSMSDGQQNTLHRPLADAVTAWFPENKQSDVSQIWHAFEHEEHANTFSAFLDRLSDTVSARNTSGFREQVAAWLEKLSASAELRQQSFAVAADATESCEDRVALTWNNLRKTLLVHQASEGLFDNDTGALLSLGREMFRLEILEDIARDKVRTLHFVDEIEVYLAFQTMLAEKLQLSTAVKEMRFYGVSGVTANDLRTAEAMVRSREENEFTDWFSLWGPWHAVLKRTEADRWAQAEEQKYEMLENEYPQRVADRLKASGLSGDADAEREAGAQVMRETEQQIYRQLTDEVLALRLPENGSQLHHS
notes: IpaH9.8, bacterial E3 ubiquitin ligase of S. flexneri; the wild-type gene was synthesised and cloned as 'IpaH9.8' into pET28M; No tag cleavage is described although the vector has a TEV site; also called IpaH9.8-WT; wild-type IpaH9.8
As for B2, the binding result in series [2] and in series [3] was “binds” throughout.

B3: IpaH9.8-C337A (enzyme)
chain: MLPINNNFSLPQNSFYNTISGTYADYFSAWDKWEKQALPGEERDEAVSRLKECLINNSDELRLDRLNLSSLPDNLPAQITLLNVSYNQLTNLPELPVTLKKLYSASNKLSELPVLPPALESLQVQHNELENLPALPDSLLTMNISYNEIVSLPSLPQALKNLRATRNFLTELPAFSEGNNPVVREYFFDRNQISHIPESILNLRNECSIHISDNPLSSHALPALQRLTSSPDYHGPRIYFSMSDGQQNTLHRPLADAVTAWFPENKQSDVSQIWHAFEHEEHANTFSAFLDRLSDTVSARNTSGFREQVAAWLEKLSASAELRQQSFAVAADATESAEDRVALTWNNLRKTLLVHQASEGLFDNDTGALLSLGREMFRLEILEDIARDKVRTLHFVDEIEVYLAFQTMLAEKLQLSTAVKEMRFYGVSGVTANDLRTAEAMVRSREENEFTDWFSLWGPWHAVLKRTEADRWAQAEEQKYEMLENEYPQRVADRLKASGLSGDADAEREAGAQVMRETEQQIYRQLTDEVLALRLPENGSQLHHS
notes: IpaH9.8 of S. flexneri with the active cysteine changed (C337A); mutants made by PCR-based mutagenesis; likely the same as m1
As for B3, the binding result in series [3] was “binds”.

B4: IpaH9.8-R166A (enzyme)
chain: MLPINNNFSLPQNSFYNTISGTYADYFSAWDKWEKQALPGEERDEAVSRLKECLINNSDELRLDRLNLSSLPDNLPAQITLLNVSYNQLTNLPELPVTLKKLYSASNKLSELPVLPPALESLQVQHNELENLPALPDSLLTMNISYNEIVSLPSLPQALKNLRATANFLTELPAFSEGNNPVVREYFFDRNQISHIPESILNLRNECSIHISDNPLSSHALPALQRLTSSPDYHGPRIYFSMSDGQQNTLHRPLADAVTAWFPENKQSDVSQIWHAFEHEEHANTFSAFLDRLSDTVSARNTSGFREQVAAWLEKLSASAELRQQSFAVAADATESCEDRVALTWNNLRKTLLVHQASEGLFDNDTGALLSLGREMFRLEILEDIARDKVRTLHFVDEIEVYLAFQTMLAEKLQLSTAVKEMRFYGVSGVTANDLRTAEAMVRSREENEFTDWFSLWGPWHAVLKRTEADRWAQAEEQKYEMLENEYPQRVADRLKASGLSGDADAEREAGAQVMRETEQQIYRQLTDEVLALRLPENGSQLHHS
notes: IpaH9.8 of S. flexneri with Arg166 changed to alanine; mutants made by PCR-based mutagenesis; likely the same as m1; also called IpaH9.8 mutant R166A
B4: the binding result in series [2] is given as “binds”.
